Data on seven molecules can be found in patent EP4663654A1 (Hangzhou Sciwind Biosciences Co., Ltd., dated 2025).

Sequences and labels used below:
T1: human amylin receptor (AMY3) on CHO-K1/Ga15/AMY3 amylin receptor/CRE-luc cells (human, UniProt P30988 25-474; O60896 24-148)
T1 sequence (looked up) 1: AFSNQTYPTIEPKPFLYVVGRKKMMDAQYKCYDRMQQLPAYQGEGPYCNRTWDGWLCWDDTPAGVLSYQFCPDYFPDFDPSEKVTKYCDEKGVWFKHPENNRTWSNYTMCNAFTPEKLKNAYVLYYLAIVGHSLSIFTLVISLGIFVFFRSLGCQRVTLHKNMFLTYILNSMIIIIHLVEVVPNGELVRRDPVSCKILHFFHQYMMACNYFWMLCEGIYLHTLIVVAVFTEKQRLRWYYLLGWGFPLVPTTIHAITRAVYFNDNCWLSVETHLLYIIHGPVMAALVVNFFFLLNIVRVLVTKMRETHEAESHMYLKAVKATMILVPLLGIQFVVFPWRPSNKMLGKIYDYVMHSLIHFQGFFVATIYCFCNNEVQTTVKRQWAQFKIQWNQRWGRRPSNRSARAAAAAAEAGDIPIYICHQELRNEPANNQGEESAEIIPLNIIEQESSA
T1 sequence (looked up) 2: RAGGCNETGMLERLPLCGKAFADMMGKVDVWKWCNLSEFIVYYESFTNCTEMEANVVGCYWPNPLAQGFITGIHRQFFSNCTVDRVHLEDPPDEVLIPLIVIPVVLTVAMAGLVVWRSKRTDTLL

B1: polypeptide derivative M16 (peptide)
peptide: {C20 diacid-γGlu-AEEA-AEEA}-ASQLSTAATQRLADFLRHFTDRDRDILPPTNVGSNTP-NH2
SMILES: CC[C@H](C)[C@H](NC(=O)[C@H](CC(=O)O)NC(=O)[C@H](CCCNC(=N)N)NC(=O)[C@H](CC(=O)O)NC(=O)[C@H](CCCNC(=N)N)NC(=O)[C@H](CC(=O)O)NC(=O)[C@@H](NC(=O)[C@H](Cc1ccccc1)NC(=O)[C@H](Cc1c[nH]cn1)NC(=O)[C@H](CCCNC(=N)N)NC(=O)[C@H](CC(C)C)NC(=O)[C@H](Cc1ccccc1)NC(=O)[C@H](CC(=O)O)NC(=O)[C@H](C)NC(=O)[C@H](CC(C)C)NC(=O)[C@H](CCCNC(=N)N)NC(=O)[C@H](CCC(N)=O)NC(=O)[C@@H](NC(=O)[C@H](C)NC(=O)[C@H](C)NC(=O)[C@@H](NC(=O)[C@H](CO)NC(=O)[C@H](CC(C)C)NC(=O)[C@H](CCC(N)=O)NC(=O)[C@H](CO)NC(=O)[C@H](C)NC(=O)COCCOCCNC(=O)COCCOCCNC(=O)CC[C@H](NC(=O)CCCCCCCCCCCCCCCCCCC(=O)O)C(=O)O)[C@@H](C)O)[C@@H](C)O)[C@@H](C)O)C(=O)N[C@@H](CC(C)C)C(=O)N1CCC[C@H]1C(=O)N1CCC[C@H]1C(=O)N[C@H](C(=O)N[C@@H](CC(N)=O)C(=O)N[C@H](C(=O)NCC(=O)N[C@@H](CO)C(=O)N[C@@H](CC(N)=O)C(=O)N[C@H](C(=O)N1CCC[C@H]1C(N)=O)[C@@H](C)O)C(C)C)[C@@H](C)O
B2: polypeptide derivative M17 (peptide)
peptide: {C20 diacid}-E[AEEA][AEEA]ASQLSTAATQRLADFLRHFTDRDRDILPPTNVGSNTP-NH2
SMILES: CC[C@H](C)[C@H](NC(=O)[C@H](CC(=O)O)NC(=O)[C@H](CCCNC(=N)N)NC(=O)[C@H](CC(=O)O)NC(=O)[C@H](CCCNC(=N)N)NC(=O)[C@H](CC(=O)O)NC(=O)[C@@H](NC(=O)[C@H](Cc1ccccc1)NC(=O)[C@H](Cc1c[nH]cn1)NC(=O)[C@H](CCCNC(=N)N)NC(=O)[C@H](CC(C)C)NC(=O)[C@H](Cc1ccccc1)NC(=O)[C@H](CC(=O)O)NC(=O)[C@H](C)NC(=O)[C@H](CC(C)C)NC(=O)[C@H](CCCNC(=N)N)NC(=O)[C@H](CCC(N)=O)NC(=O)[C@@H](NC(=O)[C@H](C)NC(=O)[C@H](C)NC(=O)[C@@H](NC(=O)[C@H](CO)NC(=O)[C@H](CC(C)C)NC(=O)[C@H](CCC(N)=O)NC(=O)[C@H](CO)NC(=O)[C@H](C)NC(=O)COCCOCCNC(=O)COCCOCCNC(=O)[C@H](CCC(=O)O)NC(=O)CCCCCCCCCCCCCCCCCCC(=O)O)[C@@H](C)O)[C@@H](C)O)[C@@H](C)O)C(=O)N[C@@H](CC(C)C)C(=O)N1CCC[C@H]1C(=O)N1CCC[C@H]1C(=O)N[C@H](C(=O)N[C@@H](CC(N)=O)C(=O)N[C@H](C(=O)NCC(=O)N[C@@H](CO)C(=O)N[C@@H](CC(N)=O)C(=O)N[C@H](C(=O)N1CCC[C@H]1C(N)=O)[C@@H](C)O)C(C)C)[C@@H](C)O
B3: polypeptide derivative M13 (peptide)
peptide: {C20 diacid}-DASQLSTAATQRLADFLRHFTDRDRDILPPTNVGSNTP-NH2
SMILES: CC[C@H](C)[C@H](NC(=O)[C@H](CC(=O)O)NC(=O)[C@H](CCCNC(=N)N)NC(=O)[C@H](CC(=O)O)NC(=O)[C@H](CCCNC(=N)N)NC(=O)[C@H](CC(=O)O)NC(=O)[C@@H](NC(=O)[C@H](Cc1ccccc1)NC(=O)[C@H](Cc1c[nH]cn1)NC(=O)[C@H](CCCNC(=N)N)NC(=O)[C@H](CC(C)C)NC(=O)[C@H](Cc1ccccc1)NC(=O)[C@H](CC(=O)O)NC(=O)[C@H](C)NC(=O)[C@H](CC(C)C)NC(=O)[C@H](CCCNC(=N)N)NC(=O)[C@H](CCC(N)=O)NC(=O)[C@@H](NC(=O)[C@H](C)NC(=O)[C@H](C)NC(=O)[C@@H](NC(=O)[C@H](CO)NC(=O)[C@H](CC(C)C)NC(=O)[C@H](CCC(N)=O)NC(=O)[C@H](CO)NC(=O)[C@H](C)NC(=O)[C@H](CC(=O)O)NC(=O)CCCCCCCCCCCCCCCCCCC(=O)O)[C@@H](C)O)[C@@H](C)O)[C@@H](C)O)C(=O)N[C@@H](CC(C)C)C(=O)N1CCC[C@H]1C(=O)N1CCC[C@H]1C(=O)N[C@H](C(=O)N[C@@H](CC(N)=O)C(=O)N[C@H](C(=O)NCC(=O)N[C@@H](CO)C(=O)N[C@@H](CC(N)=O)C(=O)N[C@H](C(=O)N1CCC[C@H]1C(N)=O)[C@@H](C)O)C(C)C)[C@@H](C)O
B4: polypeptide derivative M12 (peptide)
peptide: {C20 diacid-βAsp}-ASQLSTAATQRLADFLRHFTDRDRDILPPTNVGSNTP-NH2
SMILES: CC[C@H](C)[C@H](NC(=O)[C@H](CC(=O)O)NC(=O)[C@H](CCCNC(=N)N)NC(=O)[C@H](CC(=O)O)NC(=O)[C@H](CCCNC(=N)N)NC(=O)[C@H](CC(=O)O)NC(=O)[C@@H](NC(=O)[C@H](Cc1ccccc1)NC(=O)[C@H](Cc1c[nH]cn1)NC(=O)[C@H](CCCNC(=N)N)NC(=O)[C@H](CC(C)C)NC(=O)[C@H](Cc1ccccc1)NC(=O)[C@H](CC(=O)O)NC(=O)[C@H](C)NC(=O)[C@H](CC(C)C)NC(=O)[C@H](CCCNC(=N)N)NC(=O)[C@H](CCC(N)=O)NC(=O)[C@@H](NC(=O)[C@H](C)NC(=O)[C@H](C)NC(=O)[C@@H](NC(=O)[C@H](CO)NC(=O)[C@H](CC(C)C)NC(=O)[C@H](CCC(N)=O)NC(=O)[C@H](CO)NC(=O)[C@H](C)NC(=O)C[C@H](NC(=O)CCCCCCCCCCCCCCCCCCC(=O)O)C(=O)O)[C@@H](C)O)[C@@H](C)O)[C@@H](C)O)C(=O)N[C@@H](CC(C)C)C(=O)N1CCC[C@H]1C(=O)N1CCC[C@H]1C(=O)N[C@H](C(=O)N[C@@H](CC(N)=O)C(=O)N[C@H](C(=O)NCC(=O)N[C@@H](CO)C(=O)N[C@@H](CC(N)=O)C(=O)N[C@H](C(=O)N1CCC[C@H]1C(N)=O)[C@@H](C)O)C(C)C)[C@@H](C)O
B5: polypeptide derivative M2 (peptide)
peptide: {C20 diacid-γGlu}-ASQLSTAVLGRLADFLRHSSNNLKPILPPTNVGSNT[Hyp]-NH2
SMILES: CC[C@H](C)[C@H](NC(=O)[C@@H]1CCCN1C(=O)[C@H](CCCCN)NC(=O)[C@H](CC(C)C)NC(=O)[C@H](CC(N)=O)NC(=O)[C@H](CC(N)=O)NC(=O)[C@H](CO)NC(=O)[C@H](CO)NC(=O)[C@H](Cc1c[nH]cn1)NC(=O)[C@H](CCCNC(=N)N)NC(=O)[C@H](CC(C)C)NC(=O)[C@H](Cc1ccccc1)NC(=O)[C@H](CC(=O)O)NC(=O)[C@H](C)NC(=O)[C@H](CC(C)C)NC(=O)[C@H](CCCNC(=N)N)NC(=O)CNC(=O)[C@H](CC(C)C)NC(=O)[C@@H](NC(=O)[C@H](C)NC(=O)[C@@H](NC(=O)[C@H](CO)NC(=O)[C@H](CC(C)C)NC(=O)[C@H](CCC(N)=O)NC(=O)[C@H](CO)NC(=O)[C@H](C)NC(=O)CC[C@H](NC(=O)CCCCCCCCCCCCCCCCCCC(=O)O)C(=O)O)[C@@H](C)O)C(C)C)C(=O)N[C@@H](CC(C)C)C(=O)N1CCC[C@H]1C(=O)N1CCC[C@H]1C(=O)N[C@H](C(=O)N[C@@H](CC(N)=O)C(=O)N[C@H](C(=O)NCC(=O)N[C@@H](CO)C(=O)N[C@@H](CC(N)=O)C(=O)N[C@H](C(=O)N1C[C@H](O)C[C@H]1C(N)=O)[C@@H](C)O)C(C)C)[C@@H](C)O

Starred links: 1 amine or outer side, 2 acyl side, 3 side chain; linkers in the order of their positions; H or OH if unused. Non-standard residues stand in square brackets, D forms with d. Primed or numbered codes have the meaning given here. *: point of attachment. C20 diacid = O=C(O)CCCCCCCCCCCCCCCCCCC(=O)*; γGlu = O=C(O)[C@H](CCC(=O)[*:2])N[*:1]; βAsp = O=C(O)[C@H](CC(=O)[*:2])N[*:1]; Hyp = O=C(O)[C@@H]1C[C@@H](O)CN1; Inp′ = not defined here; Trx′ = not defined here; AEEA = NCCOCCOCC(=O)O

The target of the assay is T1, human amylin receptor (AMY3) on …. Nature of the assay: cell-based or functional assay.
With B1, the “EC50/nM, CRE-luciferase reporter in amylin receptor/CRE-luc CHO cells” value (“EC50/nM … in amylin receptor/CRE-luc CHO cells” below) turned out to be 0.042 nM and the “Relative activity (the EC50 ratio of Cagrilintide to the compound)” value was found to be 58%.
As to {C20 diacid-Trx′}-ASQLSTAATQRLADFLRHFTDRDRDILPPTNVGSNTP-NH2 (reading uncertain) [polypeptide derivative M14], the “EC50/nM … in amylin receptor/CRE-luc CHO cells” value was determined as 0.018 nM and the “Relative activity (the EC50 ratio of Cagrilintide to the compound)” value was found to be 136%.
Taken in the same sequence, the figures for B2 were 0.026 nM and 94%.
The corresponding values for B3 are 0.034 nM and 78%.
The corresponding values for B4 are 0.034 nM and 78%.
Consider {C20 diacid-Inp′}-ASQLSTAATQRLADFLRHFTDRDRDILPPTNVGSNTP-NH2 [polypeptide derivative M15], for which the “EC50/nM … in amylin receptor/CRE-luc CHO cells” value amounted to 0.03 nM and the “Relative activity (the EC50 ratio of Cagrilintide to the compound)” value is 81%.
Taken in the same sequence, the figures for B5 were 0.038 nM and 68%.
